From the supplement of paper PMC10065799, “High-throughput profiling of sequence recognition by tyrosine kinases and SH2 domains using bacterial peptide display” (eLife, 2023)

Legend:
[1] = target: c-Src SH2; test: SH2 binding enrichment of the phosphorylated peptide, bacterial display (enrichment ratio); higher = better substrate or ligand; peptides without Tyr show the background
[2] = target: Grb2 SH2 (UniProt P62993); test: as above
[3] = target: SHP2-C SH2; test: as above
[4] = target: FGFR3 (UniProt P22607); test: phosphorylation enrichment, bacterial display (enrichment ratio); higher = better substrate or ligand; peptides without Tyr show the background
[5] = target: MERTK (UniProt Q12866); test: as above
[6] = tested on: Fer (mouse); test: as above
[7] = target: Fes (UniProt P07332); test: as above
[8] = tested on: c-Src; test: as above
[9] = target: Fyn (UniProt P06241); test: as above
[10] = target: Jak2 (UniProt O60674); test: as above
[11] = target: Hck (UniProt P08631); test: as above
[12] = tested on: c-Abl (mouse); test: as above
[13] = target: FGFR1 (UniProt P11362); test: as above
[14] = target: EPHB1 (UniProt P54762); test: as above
[15] = target: EPHB2 (UniProt P29323); test: as above
[16] = tested on: AncSZ; test: as above
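Throughout, for SH2 binding enrichment of the phosphorylated peptide, bacterial display: peptide library displayed on the E. coli surface as eCPX fusions, selected cells deep-sequenced, score is each peptide's frequency after selection divided by its frequency in the input.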
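Throughout, for phosphorylation enrichment, bacterial display: 11-residue human phosphosite peptides and single-mutation variants displayed on the E. coli surface, counted by deep sequencing, each peptide's frequency after selection divided by its frequency in the unselected input library; frequency after pTyr selection over input frequency; kinase dosed for 20-30% of maximal phosphorylation in three min.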

Sequence of FGFR1 (P11362 whole entry, looked up): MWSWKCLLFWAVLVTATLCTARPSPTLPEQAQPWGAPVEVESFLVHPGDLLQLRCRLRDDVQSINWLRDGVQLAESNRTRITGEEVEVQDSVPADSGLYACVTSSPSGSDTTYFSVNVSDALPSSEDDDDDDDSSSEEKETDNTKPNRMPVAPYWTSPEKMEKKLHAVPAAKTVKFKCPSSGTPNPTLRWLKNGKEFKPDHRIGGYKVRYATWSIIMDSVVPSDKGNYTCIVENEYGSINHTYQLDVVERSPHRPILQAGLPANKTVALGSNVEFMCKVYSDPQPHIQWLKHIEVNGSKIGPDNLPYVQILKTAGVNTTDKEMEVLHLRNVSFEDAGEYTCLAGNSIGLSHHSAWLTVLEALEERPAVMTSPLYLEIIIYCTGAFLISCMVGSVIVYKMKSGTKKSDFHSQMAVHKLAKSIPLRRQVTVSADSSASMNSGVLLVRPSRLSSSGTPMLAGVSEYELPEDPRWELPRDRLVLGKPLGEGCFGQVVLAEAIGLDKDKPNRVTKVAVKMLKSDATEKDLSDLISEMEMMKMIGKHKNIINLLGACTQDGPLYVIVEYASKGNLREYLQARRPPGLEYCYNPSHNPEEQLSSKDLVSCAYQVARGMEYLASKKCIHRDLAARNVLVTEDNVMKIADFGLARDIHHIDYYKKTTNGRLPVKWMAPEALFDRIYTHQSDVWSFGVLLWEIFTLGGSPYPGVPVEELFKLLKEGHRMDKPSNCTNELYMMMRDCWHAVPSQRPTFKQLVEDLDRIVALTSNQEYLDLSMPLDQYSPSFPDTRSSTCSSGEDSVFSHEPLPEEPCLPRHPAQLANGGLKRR
Sequence of Hck (P08631 whole entry, looked up): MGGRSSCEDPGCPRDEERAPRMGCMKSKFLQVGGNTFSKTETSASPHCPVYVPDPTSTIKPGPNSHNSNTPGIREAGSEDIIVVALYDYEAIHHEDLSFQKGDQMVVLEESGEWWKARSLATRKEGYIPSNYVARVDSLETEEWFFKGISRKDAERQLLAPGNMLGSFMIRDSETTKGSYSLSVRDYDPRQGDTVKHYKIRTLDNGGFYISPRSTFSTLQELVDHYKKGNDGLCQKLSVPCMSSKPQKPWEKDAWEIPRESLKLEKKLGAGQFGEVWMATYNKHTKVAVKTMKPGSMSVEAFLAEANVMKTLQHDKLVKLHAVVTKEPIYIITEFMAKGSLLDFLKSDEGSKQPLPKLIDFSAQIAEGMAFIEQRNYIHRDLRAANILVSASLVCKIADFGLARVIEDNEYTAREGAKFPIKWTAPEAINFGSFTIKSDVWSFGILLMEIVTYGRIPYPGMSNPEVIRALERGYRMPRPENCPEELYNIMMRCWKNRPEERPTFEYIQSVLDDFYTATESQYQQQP
Sequence of EPHB2 (P29323 whole entry, looked up): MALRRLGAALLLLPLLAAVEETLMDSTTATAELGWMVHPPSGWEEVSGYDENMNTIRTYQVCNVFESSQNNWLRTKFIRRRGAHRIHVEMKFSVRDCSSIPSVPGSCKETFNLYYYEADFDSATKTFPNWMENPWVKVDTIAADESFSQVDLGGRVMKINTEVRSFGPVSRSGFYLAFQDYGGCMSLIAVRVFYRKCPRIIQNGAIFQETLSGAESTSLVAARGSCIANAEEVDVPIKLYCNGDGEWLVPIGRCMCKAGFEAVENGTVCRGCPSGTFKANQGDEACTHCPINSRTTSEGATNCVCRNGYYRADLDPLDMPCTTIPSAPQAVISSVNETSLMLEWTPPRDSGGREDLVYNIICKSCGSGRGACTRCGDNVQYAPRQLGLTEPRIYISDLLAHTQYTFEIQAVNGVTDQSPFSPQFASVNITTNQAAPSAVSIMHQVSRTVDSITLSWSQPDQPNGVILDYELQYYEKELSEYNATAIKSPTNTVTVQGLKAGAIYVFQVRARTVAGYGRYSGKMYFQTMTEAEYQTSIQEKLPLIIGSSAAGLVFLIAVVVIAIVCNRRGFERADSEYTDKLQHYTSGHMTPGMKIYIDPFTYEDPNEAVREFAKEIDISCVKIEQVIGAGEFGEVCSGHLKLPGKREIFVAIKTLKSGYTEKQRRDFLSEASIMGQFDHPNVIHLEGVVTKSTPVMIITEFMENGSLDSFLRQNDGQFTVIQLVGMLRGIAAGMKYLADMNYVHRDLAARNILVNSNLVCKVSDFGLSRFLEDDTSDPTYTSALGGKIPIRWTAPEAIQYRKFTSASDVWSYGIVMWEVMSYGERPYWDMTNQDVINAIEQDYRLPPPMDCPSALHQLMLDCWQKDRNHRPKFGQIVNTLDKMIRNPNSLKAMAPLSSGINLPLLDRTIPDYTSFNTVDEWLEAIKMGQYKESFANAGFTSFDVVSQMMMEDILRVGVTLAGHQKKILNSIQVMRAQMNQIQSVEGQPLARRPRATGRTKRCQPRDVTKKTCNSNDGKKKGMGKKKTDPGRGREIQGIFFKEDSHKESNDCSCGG
Sequence of Fes (P07332 whole entry, looked up): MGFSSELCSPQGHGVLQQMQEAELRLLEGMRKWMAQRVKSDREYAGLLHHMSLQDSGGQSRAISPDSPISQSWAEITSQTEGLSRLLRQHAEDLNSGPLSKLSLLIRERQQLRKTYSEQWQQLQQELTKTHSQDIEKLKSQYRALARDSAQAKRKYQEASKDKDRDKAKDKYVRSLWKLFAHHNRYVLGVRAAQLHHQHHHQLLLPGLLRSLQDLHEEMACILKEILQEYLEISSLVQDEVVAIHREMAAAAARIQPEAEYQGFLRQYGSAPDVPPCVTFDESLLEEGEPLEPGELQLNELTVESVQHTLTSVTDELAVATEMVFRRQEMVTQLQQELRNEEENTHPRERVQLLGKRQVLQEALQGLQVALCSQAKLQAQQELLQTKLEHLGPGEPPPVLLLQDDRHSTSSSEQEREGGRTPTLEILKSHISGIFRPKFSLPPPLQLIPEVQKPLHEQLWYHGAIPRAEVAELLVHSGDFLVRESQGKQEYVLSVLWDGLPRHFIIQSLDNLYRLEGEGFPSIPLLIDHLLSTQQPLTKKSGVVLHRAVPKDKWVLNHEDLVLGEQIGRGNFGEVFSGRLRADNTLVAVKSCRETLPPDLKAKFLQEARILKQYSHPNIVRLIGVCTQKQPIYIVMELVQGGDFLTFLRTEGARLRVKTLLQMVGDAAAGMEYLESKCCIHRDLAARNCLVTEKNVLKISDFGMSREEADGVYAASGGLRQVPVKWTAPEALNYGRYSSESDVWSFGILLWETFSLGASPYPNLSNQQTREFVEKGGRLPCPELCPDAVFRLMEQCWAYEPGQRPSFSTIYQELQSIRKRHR
Sequence of MERTK (Q12866 whole entry, looked up): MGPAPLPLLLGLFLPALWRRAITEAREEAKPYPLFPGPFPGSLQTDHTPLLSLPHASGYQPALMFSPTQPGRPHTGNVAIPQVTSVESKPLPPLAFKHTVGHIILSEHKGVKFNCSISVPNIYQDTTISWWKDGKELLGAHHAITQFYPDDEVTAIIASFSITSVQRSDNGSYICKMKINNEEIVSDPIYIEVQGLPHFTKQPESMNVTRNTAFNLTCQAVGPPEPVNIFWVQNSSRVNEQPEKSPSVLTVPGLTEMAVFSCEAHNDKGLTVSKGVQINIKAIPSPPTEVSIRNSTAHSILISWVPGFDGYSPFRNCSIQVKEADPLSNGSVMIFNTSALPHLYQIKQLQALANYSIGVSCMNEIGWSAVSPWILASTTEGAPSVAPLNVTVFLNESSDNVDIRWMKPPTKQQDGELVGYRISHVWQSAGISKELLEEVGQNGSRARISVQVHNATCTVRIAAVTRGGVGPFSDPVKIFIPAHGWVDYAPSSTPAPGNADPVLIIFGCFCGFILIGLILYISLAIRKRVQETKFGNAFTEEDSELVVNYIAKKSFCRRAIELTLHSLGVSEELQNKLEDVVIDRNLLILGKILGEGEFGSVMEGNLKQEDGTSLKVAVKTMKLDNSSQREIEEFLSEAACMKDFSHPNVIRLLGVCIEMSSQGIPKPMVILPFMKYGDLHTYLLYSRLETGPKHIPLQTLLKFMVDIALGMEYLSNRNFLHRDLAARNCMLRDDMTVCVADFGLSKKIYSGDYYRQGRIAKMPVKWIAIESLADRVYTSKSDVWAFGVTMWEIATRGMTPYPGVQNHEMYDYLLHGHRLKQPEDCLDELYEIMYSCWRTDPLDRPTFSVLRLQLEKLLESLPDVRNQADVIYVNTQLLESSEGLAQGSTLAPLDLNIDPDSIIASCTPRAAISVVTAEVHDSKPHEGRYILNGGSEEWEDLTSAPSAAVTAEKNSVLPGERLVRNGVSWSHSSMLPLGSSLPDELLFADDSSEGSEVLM
Sequence of Fyn (P06241 whole entry, looked up): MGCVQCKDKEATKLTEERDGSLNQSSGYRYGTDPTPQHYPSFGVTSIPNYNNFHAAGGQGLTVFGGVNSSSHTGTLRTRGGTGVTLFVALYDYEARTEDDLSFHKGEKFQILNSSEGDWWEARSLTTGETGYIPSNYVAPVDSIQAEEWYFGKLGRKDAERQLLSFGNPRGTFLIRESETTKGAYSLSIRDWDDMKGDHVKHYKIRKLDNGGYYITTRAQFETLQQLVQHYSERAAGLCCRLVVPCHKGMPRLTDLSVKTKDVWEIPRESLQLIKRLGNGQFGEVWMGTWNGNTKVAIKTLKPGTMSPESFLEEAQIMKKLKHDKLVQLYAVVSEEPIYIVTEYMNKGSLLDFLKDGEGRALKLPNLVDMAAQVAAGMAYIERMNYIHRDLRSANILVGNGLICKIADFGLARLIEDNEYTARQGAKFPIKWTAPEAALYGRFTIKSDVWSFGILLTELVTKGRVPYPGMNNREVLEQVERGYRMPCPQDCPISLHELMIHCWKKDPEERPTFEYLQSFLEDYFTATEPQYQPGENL

SH2 binding enrichment [1] | SH2 binding enrichment [2] | SH2 binding enrichment [3] | Sequence | phosphorylation enrichment [4] | phosphorylation enrichment [5] | phosphorylation enrichment [6] | phosphorylation enrichment [7] | phosphorylation enrichment [8] | phosphorylation enrichment [9] | phosphorylation enrichment [10] | phosphorylation enrichment [11] | phosphorylation enrichment [12] | phosphorylation enrichment [13] | phosphorylation enrichment [14] | phosphorylation enrichment [15] | phosphorylation enrichment [16]
0.572 | 0.624 | 0.508 | LALTVYADCLA [ABCA4_Y2063_G2059A] | 1.05 | 0.517 | 0.781 | 1.48 | 0.62 | 0.699 | 1.53 | 0.73 | 1.09 | 0.665 | 1.08 | 0.938 | 1.42
0.461 | 0.908 | 0.562 | LEGEEYRMSGE [KRT3_Y511] | 0.929 | 0.462 | 0.937 | 1.41 | 0.525 | 0.797 | 1.58 | 0.531 | 0.956 | 0.574 | 0.891 | 0.598 | 1.69
0.826 | 0.957 | 1.36 | HCHEGYVLHGA [SVEP1_Y2921_I2922V] | 1.13 | 0.474 | 0.911 | 1.3 | 0.527 | 0.789 | 0.943 | 0.786 | 0.78 | 1.11 | 0.915 | 0.807 | 1.28
0.653 | 1.1 | 0.795 | CTTIHKNFMCN [TP53_Y234_Y234K_YF] | 0.585 | 0.42 | 0.453 | 0.699 | 0.448 | 0.409 | 0.553 | 0.405 | 0.49 | 0.486 | 0.394 | 0.53 | 0.831
0.368 | 0.659 | 0.245 | RYVSRYIYNRE [HLA-DQB1_Y62_T60S] | 0.739 | 0.993 | 0.844 | 1.11 | 1.08 | 0.829 | 0.92 | 0.551 | 0.666 | 0.658 | 0.922 | 0.95 | 1.29
